Measurements reported in US20240294641A1 (CHILDREN S MEDICAL CENTER, published 2024).
Residue numbers refer to the chain shown, from its start.

B1: M2-5 (antibody, V domains shown)
VH: QVQLVESGGDVVQPGGSLRLSCAASGVVFSDYGLYWVRQAPGKGLEWVALIWYDGSKKFYADSVKGRFSISRDNSKNMLYLQMNNLRADDSAIYYCSRGIRQGPWFAYWGQGTRVTVSP
VL: EIVLTQSPATLSLSPGERATLSCRASQSISSDLTWFQQKPGQAPRLIIYDASNRATGIPARFSGSGSGTDFTLTISSLEPEDFVVYYCLQRSDWPLTFGGGTKVEIK
notes: Expressed as human IgG4/kappa in 293F or Expi293 cells; also called 397-27-93
B2: M2-4 (antibody, V domains shown)
VH: QVQLVESGGDVVQPGGSLRLSCAASGVAFRNYGMHWVRQAPGKGLEWVAIIWYDGSNKYYADSVKGRFTISRDNSKNMLYLQMNSLRAEDTAMYYCARLSIGTTHYFDTDDYWGQGTSVTVSS
VL: EIVLTQSPATLSLSPGERATLSCRASQSVSSYLAWYQQKVGQAPRLIIFDASNRATGIPARFSGSGSGTDFTLTITSLDPEDFAVYYCQQRSAWPLTFGGGTKVEIR
notes: Expressed as human IgG4/kappa; 6xHis tag at the C-terminus of the Fc for ELISA
B3: M2-2 (antibody, V domains shown)
VH: QVQLVESGGDVVQPGGSLRLSCSASGLVISDYGMNWVRQAPGKGLEWVGLIWYDGSKKYYSDFVKGRFTISRDNSKNILYLQMNNLRAEDTAMYYCARFLIGATRRGNAMDYWGQGTSVTVSS
VL: B1 VL with I2V, S30D, T34A, F36S, A43P, V84A, L89Q, K107R
notes: Expressed as human IgG4/kappa in 293F or Expi293 cells; also called 397-27-23
B4: M1-2 (antibody, V domains shown)
VH: QVQLVESGGDVVQPGGSLRLSCAASGVAFSDYGMEWVRQAPGKGLEWLAVIWYDGSRKHYADSVKGRFTISRDNSKNILYLQMNSLRAEDTAMYYCARCHSKDDYWGQGTLVTVSS
VL: EIVLTQFPATLSLSPGERATLSCRTSQNIDSDLAWFQQKPGQAPRLIIYDASNRATGIPARFSGGGSGTDFTLTITSLEPEDFAVYYCQQRTTWPLTFGGGTKVEIK
notes: Expressed as human IgG4/kappa in 293F or Expi293 cells; also called 319-9-15
B5: M1-4 (antibody, V domains shown)
VH: QVQLVESGGDVVQPGGSLRLSCAVSGVTFGDFGFEWVRQAPGKGLEWVAVIWYDGSRKHYAESVRGRFTISRDNSRNMMYLEMTGLRVEDTAKYYCTRSHSHEDYWGQGTLVTVSS
VL: EIVLTQSPATLSLSPGERATLSCRASQSISNYLAWFQQKSGQAPRLIIHDAFKRAAGIPTRFSGSGSGTDFTLTISSLEPEDFAVYYCQQRDNWPLNFGGGTKVEIK
notes: Expressed as human IgG4/kappa in 293F or Expi293 cells; also called 319-9-27
B6: M1-6 (antibody, V domains shown)
VH: B5 VH with P14S, T28V, G30S, F32Y, E62D, R65Q, S75F, M79L, E82Q
VL: EIVLTQSPATLSLSPGERATLSCGASQNIDNSLAWFQQKPGQAPRLIIYDASKRATGIPARFSGSGSGTDFTLTISTLEPEDFAVYYCQQRDHWPLNFGGGTKVEVK
notes: Expressed as human IgG4/kappa in 293F or Expi293 cells; also called 319-9-53
B7: M1-3 (antibody, V domains shown)
VH: QEWLVESGGDVVQPGGSLRLSCATSKVTFNDFGIHWVRQAPGKGLEWVAIIWYDGSRNHYADSVRGRFTLSRDNSKNMVHLHMSSLRTEDTAMYYCARGIHSNDDYWGQGTMVTVSS
VL: EIVLTQSPATLSLSPGERATLSCRTSQSVSSDLAWFQQKPGQAPRLFIFDASKRVNGIPARFSGSGSGTDFTLTISSLEPEDFAVYYCQQRTDWPLTFGGGSRVEIK
notes: Expressed as human IgG4/kappa in 293F or Expi293 cells; also called 319-9-17
B8: M2-3 (antibody, V domains shown)
VH: QGHLVESGGDVVLPGGSLRLSCTESGVDLSDFGIHWVRQTPGKGLEWVALIWYDGSKKFYADSVKDRFTISRDNSKNMVYLEMISLRVEDTAMYFCARGIRRGPWFTYWGPGTLVTVST
VL: B1 VL with A9V, T10I, T34A, K39T, V84A, L89Q, D93N
notes: Expressed as human IgG4/kappa in 293F or Expi293 cells; also called 397-27-25
B9: M1-1 (antibody, V domains shown)
VH: QVQLVESGGDVVQPGGSLRLSCAASGVAFRDYGMHWVRQAPGKGLEWVAVIWYDGSKKYYGDSVKGRFTVSRDNSKNMLYLEMNGLKAEDTAMYYCARNDDYWGQGTLVTVSS
VL: EIVLTQSPATLSLSPGERATLSCRASQSVSNSLSWYQQNPGQSPRLIIYDTSKRATGIPARFSGSGSGTDFTLTINNLETEDFAVYYCHQRSDWPLTFGGGTKVEIK
notes: Expressed as human IgG4/kappa in 293F or Expi293 cells; retains the CDR H3 of 17D8; also called 319-9-8
B10: M1-7 (antibody, V domains shown)
VH: B4 VH with V2L, A28V, Y32F, M34L, I78M, A88V, D103E
VL: B4 VL with V3E, L4V, F7S, T25A, N28S, S31T, K39R, A43T, N53K, T76S
notes: Expressed as human IgG4/kappa in 293F or Expi293 cells; also called 319-9-75
B11: 17D8 antibody (antibody, V domains shown)
VH: B9 VH with R30S, D31N, K57N, G61A, V70I, E82Q, G85S, K87R
VL: B2 VL with V40P, F49Y, T76S, D79E, A93N, R107K
notes: Prototype anti-PD1 antibody (U.S. Pat. No. 8,008,449 B2); Produced as human IgG4/kappa; His-tagged for ELISA, untagged for Biacore
B12: M2-1 (antibody, human IgG4, V domains shown)
VH: B3 VH with I29F, S30R, S56T, I78M, M93I, T120I
VL: B1 VL with I2V, S30D, T34A, F36S, P40T, A43P, V84A, L89Q, K107R
notes: Expressed as human IgG4/kappa; without His tag and Protein A purified for Biacore; also called 397-27-3
B13: M1-5 (antibody, human IgG4, V domains shown)
VH: QVQLVESGGDVVQPGGSLRLSCTVSGAVFRDLGMEWVRQAPGKGLEWLAVIWYDGGRKHYADSVKGRFTISRDNSRNMLFLQMNGLRVDDTAMYYCTRSHSTDDYWGQGTLVTVSS
VL: B5 VL with L13V, N31S, Y32D, S40P, D50G, F52S, A56T, T60A, N93S
notes: Expressed as human IgG4/kappa; without His tag and Protein A purified for Biacore; also called 319-9-34

Each binder was assayed against T1, full-length human PD1 expressed on NS1 cells (PD1-NS1) (human, UniProt Q15116 25-288) (assay: FACS on PD1-NS1 cells, PE-anti-human kappa).
T1 construct: whole, on cells; also called surface-expressed PD1; PD1 expressing cell line
T1 sequence (Q15116 25-288): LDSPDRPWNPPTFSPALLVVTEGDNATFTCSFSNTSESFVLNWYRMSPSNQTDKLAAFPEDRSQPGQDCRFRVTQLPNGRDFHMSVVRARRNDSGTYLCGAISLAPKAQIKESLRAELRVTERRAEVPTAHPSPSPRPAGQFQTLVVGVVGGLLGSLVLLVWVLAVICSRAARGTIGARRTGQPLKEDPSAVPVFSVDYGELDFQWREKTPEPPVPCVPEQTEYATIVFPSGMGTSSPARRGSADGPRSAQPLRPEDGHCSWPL

Q: Does B1 bind?
A: Result: binds

Q: Does B2 bind?
A: Result: binds

Q: Does B3 bind?
A: Result: binds

Q: Does B4 bind?
A: Result: binds

Q: Does B5 bind?
A: Result: binds

Q: Does B6 bind?
A: Result: binds

Q: Does B7 bind?
A: Result: binds

These binders were tested against T2, PD1 extracellular domain, without fusion to other proteins (human, UniProt Q15116 25-170) (assay: ELISA, plate coated with PD1 extracellular domain without Fc fusion, OD405).
T2 construct: extracellular domain; also called unfused PD1; monomeric PD1
T2 sequence (Q15116 25-170): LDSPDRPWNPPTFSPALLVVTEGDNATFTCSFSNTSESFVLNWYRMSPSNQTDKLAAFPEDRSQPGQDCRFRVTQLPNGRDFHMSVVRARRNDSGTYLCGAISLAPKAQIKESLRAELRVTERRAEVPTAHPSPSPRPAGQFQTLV
Excerpt: (§1) ELISA was used to compare the PD1 binding activities of the new and previous anti-PD1 antibodies. The ELISA coating antigen was a recombinant protein of the extracellular domain of PD1, without fusion to other proteins so that the ELISA measured binding activities specific to PD1.

Q: Does B1 bind?
A: Result: binds

Q: Does B2 bind?
A: Result: binds

Q: Does B3 bind?
A: Result: binds

Q: Does B4 bind?
A: Result: binds

Q: Does B5 bind?
A: Result: binds

Q: Does B6 bind?
A: Result: binds

Q: Does B7 bind?
A: Result: binds

Molecular target: T2, PD1 extracellular domain, without …
Test: as above
Remark: another data set of the same source
Excerpt: as §1
In this ELISA experiment, PD1 extracellular domain, without Fc fusion, was coated on the ELISA plate.

Q: Does B8 bind?
A: Result: binds

Q: Does B9 bind?
A: Result: binds

Q: Does B10 bind?
A: Result: binds

What follows are binders tested against T2, PD1 extracellular domain, without … (assay: Biacore (SPR), antibody immobilized on the sensor chip, PD1 extracellular domain in flow).
Description: In this assay, antibodies were immobilized on sensor chips, and PD1 extracellular domain, the same protein used in the ELISA experiment in FIG. 5C, flowed through sensor chip. The kinetics of PD1/antibody interaction was measured in real time. The table lists the association rate constant (kₐ), dissociation rate constant (kd) and equilibrium dissociation constant (KD) for each antibody.
Biacore analysis of the kinetics of the interaction between anti-PD1 antibodies and PD1 was performed by Affina Biotechnologies. Given the quantitative and sensitive nature of the assay, non-physiological modifications of the antibodies and PD1 were minimized. […] The PD1-Fc fusion protein contains a TEV protease cleavage site. After TEV digest, the PD1 portion was separated from the Fc region. […] However, in the context of the PD-Fc fusion, PD1 is dimerized through the Fc region and may engage in bivalent interactions with IgG antibodies. The avidity effect can cause major deviations from the actual binding affinity between monomeric PD1 and single antigen-binding site. Separation of PD1 from the Fc portion prevented this error. In the biacore assay, the antibodies were immobilized on sensor chips and PD1 was passed over the immobilized antibodies. Association and dissociation of antibodies and PD1 were detected in real time.

Q: With B11 as the binder, how does the Kd read?
A: The Kd was 3.4 nM.

Q: What about the koff of the same binder?
A: The koff was 0.0013 s⁻¹.

Q: And the kon?
A: The kon was 387000 M⁻¹ s⁻¹.

Q: How did the Kd turn out when B12 was run?
A: The Kd was 3.7 nM.

Q: And the koff?
A: The koff was 0.00074 s⁻¹.

Q: And the kon?
A: Its kon is 199000 M⁻¹ s⁻¹.

Q: With B13 as the binder, how does the Kd read?
A: Its Kd is 2.1 nM.

Q: And the koff?
A: Its koff is 0.0021 s⁻¹.

Q: What about the kon of the same binder?
A: Its kon is 995000 M⁻¹ s⁻¹.

Molecular target: T1, full-length human PD1 expressed on NS1 …
Test: FACS on PD1-NS1 cells, PE-anti-human kappa
Remark: another data set of the same source
Description: To test the binding of anti-PD1 antibodies to surface expressed PD1, full-length human PD1 in mouse plasmacytoma cell line, NS1, was expressed. […] A construct that expresses the full length human PD1 was transfected into NS1 cells, and clones with stable integration of the expression construct were obtained. […] For the FACS analysis in FIG. 5B, the PD1-NS1 cells were incubated with anti-PD1 antibodies. […] The FACS staining reaction was analyzed on Attune NXT FACS machine, and the data were plotted with FlowJo 10 software.

Q: Does B8 bind?
A: Result: binds

Q: Does B9 bind?
A: Result: binds

Q: Does B10 bind?
A: Result: binds
